Reference: IntAct's records for PubMed 24997600

B1: Regulation of nuclear pre-mRNA domain-containing protein 1B (Homo sapiens), Q9NQG5 (parent)
chain: MSSFSESALEKKLSELSNSQQSVQTLSLWLIHHRKHAGPIVSVWHRELRKAKSNRKLTFLYLANDVIQNSKRKGPEFTREFESVLVDAFSHVAREADEGCKKPLERLLNIWQERSVYGGEFIQQLKLSMEDSKSPPPKATEEKKSLKRTFQQIQEEEDDDYPGSYSPQDPSAGPLLTEELIKALQDLENAASGDATVRQKIASLPQEVQDVSLLEKITDKEAAERLSKTVDEACLLLAEYNGRLAAELEDRRQLARMLVEYTQNQKDVLSEKEKKLEEYKQKLARVTQVRKELKSHIQSLPDLSLLPNVTGGLAPLPSAGDLFSTD

Variants of: B1
Conditions: with rpb1_human POLR2A

Variant	effect of a mutation on the interaction
R114A	disrupting interaction strength
